Experimental data taken from PMC3029386.

Assays:
[1] = molecular target: DevR (full-length) (Mycobacterium tuberculosis) (UniProt P9WMF9); assay: DNase I footprinting
[2] = molecular target: DevRC (DevR C-terminal domain) (Mycobacterium tuberculosis H37Rv) (UniProt P9WMF9); assay: DNase I footprinting
DevRC (DevR C-terminal domain) (Mycobacterium tuberculosis H37Rv), sequence (P9WMF9 141-217): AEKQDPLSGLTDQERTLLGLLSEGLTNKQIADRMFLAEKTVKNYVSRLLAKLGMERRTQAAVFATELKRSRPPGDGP

DevR (full-length) (Mycobacterium tuberculosis), sequence (P9WMF9 whole entry, the tested form may be a part): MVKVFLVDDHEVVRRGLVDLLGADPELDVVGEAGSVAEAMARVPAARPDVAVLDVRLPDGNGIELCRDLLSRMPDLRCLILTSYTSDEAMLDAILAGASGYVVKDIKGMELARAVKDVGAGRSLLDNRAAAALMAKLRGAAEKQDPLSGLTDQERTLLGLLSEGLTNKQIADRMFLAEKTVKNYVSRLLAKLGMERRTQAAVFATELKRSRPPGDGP

TGGCTGCCGGGCCTTTCCCATCAACGGCTGCGGTCATCTATTAAGGATCGCGCGTCGACAGCCGCGGTGGCAGAGCACGAAGGCTCGCCAGCGGAGGACCTTTGGCCCTGCCTCAACGGCTCCTCGCAGCGGAGAGTGGTACTGACGGTTGCAGATAATCCGGATCACCGGGGAAGGCGCTGACCATG (double strand) [tgs1-Rv3131 intergenic DNA (3130F/3131R)]
binding [1]: binds | binding [2]: binds
